Reference: PMC5959871, “Bacterial encapsulins as orthogonal compartments for mammalian cell engineering” (Nature Communications, 2018)

B1: Encapsulin cargo protein B, non-tagged, from the multi-gene construct BCDP2A (natural protein, Myxococcus xanthus, UniProt Q1D6H3 1-158, looked up)
chain: MAGPPDSDLDDVARIRLVLARELETINEYEAYARASSNPEVRAFFQHLAAEEKEHVSEAVHMLRMLDSGQNDHFAKPFVPGHFQAAEAPAPATVHVPTPDGPAFSVNGRNGRLPSEPPTSLPPQRLLYGLPAPPPAVESHPLTVGSLRRGGGGSGSGR
notes: MxEncB, ferritin-like native cargo protein of Myxococcus xanthus encapsulin, expressed from a single reading frame with C and D separated by P2A peptides; P2A skipping probably leaves residues of the P2A peptide on the proteins; also called MxEncB; EncB
B2: Encapsulin cargo protein C, non-tagged, from the multi-gene construct BCDP2A (natural protein, Myxococcus xanthus, UniProt Q1D3Y8 1-130, looked up)
chain: MPQTNPFHSLVPRKMTDTELARSIRLNIEAELDAINLYAAHIDATDNEDAKAILQHVMDEEREHAALFWELIARLDPEQAAHAKEAVEKYRLITSGASHEAVEAVGKEGAAPSPADVTPEKRLTVGSLRR
notes: MxEncC, ferritin-like native cargo protein of Myxococcus xanthus encapsulin, expressed from a single reading frame with B and D separated by P2A peptides; P2A skipping probably leaves residues of the P2A peptide on the proteins; also called MxEncC; EncC
B3: Encapsulin cargo protein D, non-tagged, from the multi-gene construct BCDP2A (natural protein, Myxococcus xanthus, UniProt Q1D9P3 1-109, looked up)
chain: MAKNSNPSAFDRDFGYLMPFLDRVAAAASDLEDASARAELTRLMVEEKARWQRIQELLGGAGGRGAAAPTPAREAPAEAPRLARGSADELHEAAPFATGLTVGSLRGSR
notes: MxEncD, native cargo protein of Myxococcus xanthus encapsulin, expressed from a single reading frame with B and C separated by P2A peptides; P2A skipping probably leaves residues of the P2A peptide on the proteins; also called MxEncD; EncD

target: T1, MxEncA^FLAG, encapsulin shell protein A from Myxococcus xanthus with C-terminal FLAG tag (Myxococcus xanthus, UniProt Q1D6H4 1-287); experiment: native gel or EMSA; Blue Native PAGE (NativePAGE 3-12% Bis-Tris) of material eluted from the anti-FLAG Co-IP or the Strep-Tactin purification; Coomassie or silver stain; conditions: both partners purified
T1 construct: MxEncA, encapsulin shell protein of Myxococcus xanthus, mammalian codon-optimized synthetic gene; A^FLAG printed as 32.9 kDa; Assembles into shells of 60 (T = 1) or 180 (T = 3) subunits; also called nanoshell; source: also purified by anti-FLAG beads and FLAG-peptide elution; not shown: FLAG, C-terminal, kept

Binding result, binds:
B1
B2
B3
